Measurements from patent publication US20140213513A1 (Sanofi, priority 2012, published 2014).
*1 amine or outer side, *2 acyl side, *3 side chain or, on linkers, in order; H or OH if unused. Where no end group is shown, it is not given here. Side-chain parts run from the residue outwards. [ ]: non-standard residue; d: D form. The star is where a group is joined. γGlu = O=C(O)[C@H](CCC(=O)[*:2])N[*:1]; Stearoyl = CCCCCCCCCCCCCCCCCC(=O)*; Palmitoyl = CCCCCCCCCCCCCCCC(=O)*; Aib = CC(C)(N)C(=O)O

T1: human GIP receptor (human, UniProt P48546 22-466)
T1 sequence (looked up): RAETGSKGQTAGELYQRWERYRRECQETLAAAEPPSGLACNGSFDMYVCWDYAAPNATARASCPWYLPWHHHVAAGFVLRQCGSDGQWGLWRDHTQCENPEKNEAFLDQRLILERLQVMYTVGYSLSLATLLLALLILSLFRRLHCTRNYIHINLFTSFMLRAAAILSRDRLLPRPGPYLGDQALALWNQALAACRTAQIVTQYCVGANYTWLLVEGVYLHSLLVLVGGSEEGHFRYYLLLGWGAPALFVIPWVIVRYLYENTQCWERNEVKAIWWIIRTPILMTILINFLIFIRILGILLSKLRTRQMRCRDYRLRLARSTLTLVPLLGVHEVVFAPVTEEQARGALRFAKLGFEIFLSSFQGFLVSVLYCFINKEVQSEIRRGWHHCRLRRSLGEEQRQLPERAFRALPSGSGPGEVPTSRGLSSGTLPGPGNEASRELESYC


How the values were obtained:
Assay in all cases: cell-based or functional assay
human GIP receptor = target: T1, human GIP receptor
human glucagon receptor = human glucagon receptor (human, UniProt P47871 26-477)
Sequence of human glucagon receptor (P47871 26-477): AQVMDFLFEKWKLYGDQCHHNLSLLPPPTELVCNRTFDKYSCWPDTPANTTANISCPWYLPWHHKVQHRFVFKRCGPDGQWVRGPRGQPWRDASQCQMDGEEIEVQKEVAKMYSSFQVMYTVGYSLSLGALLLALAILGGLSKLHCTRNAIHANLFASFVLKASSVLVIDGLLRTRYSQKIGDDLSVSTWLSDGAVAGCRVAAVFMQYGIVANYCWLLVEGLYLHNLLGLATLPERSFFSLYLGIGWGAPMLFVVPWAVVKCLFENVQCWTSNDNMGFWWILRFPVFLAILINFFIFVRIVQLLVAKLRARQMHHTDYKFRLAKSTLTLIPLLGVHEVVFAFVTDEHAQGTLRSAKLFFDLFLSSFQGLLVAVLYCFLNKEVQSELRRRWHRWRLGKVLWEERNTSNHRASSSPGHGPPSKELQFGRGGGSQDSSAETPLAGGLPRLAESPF

human GLP-1 receptor = human GLP-1 receptor (human, UniProt P43220 24-463)

| Binder | EC50 hGIP R (human GIP receptor) [nM] | EC50 hGLUC R (human glucagon receptor) [nM] | EC50 hGLP-1 R (human GLP-1 receptor) [nM] |
| --- | --- | --- | --- |
| Y[Aib]EGTFTSDLSIQK([γGlu-Stearoyl])ESKAAQEFIEWLKAGGPSSGAPPPS-NH2 (N-terminus assumed; SMILES CCCCCCCCCCCCCCCCCC(=O)N[C@@H](CCC(=O)NCCCC[C@H](NC(=O)[C@H](CCC(N)=O)NC(=O)[C@@H](NC(=O)[C@H](CO)NC(=O)[C@H](CC(C)C)NC(=O)[C@H](CC(=O)O)NC(=O)[C@H](CO)NC(=O)[C@@H](NC(=O)[C@H](Cc1ccccc1)NC(=O)[C@@H](NC(=O)CNC(=O)[C@H](CCC(=O)O)NC(=O)C(C)(C)NC(=O)[C@@H](N)Cc1ccc(O)cc1)[C@@H](C)O)[C@@H](C)O)[C@@H](C)CC)C(=O)N[C@@H](CCC(=O)O)C(=O)N[C@@H](CO)C(=O)N[C@@H](CCCCN)C(=O)N[C@@H](C)C(=O)N[C@@H](C)C(=O)N[C@@H](CCC(N)=O)C(=O)N[C@@H](CCC(=O)O)C(=O)N[C@@H](Cc1ccccc1)C(=O)N[C@H](C(=O)N[C@@H](CCC(=O)O)C(=O)N[C@@H](Cc1c[nH]c2ccccc12)C(=O)N[C@@H](CC(C)C)C(=O)N[C@@H](CCCCN)C(=O)N[C@@H](C)C(=O)NCC(=O)NCC(=O)N1CCC[C@H]1C(=O)N[C@@H](CO)C(=O)N[C@@H](CO)C(=O)NCC(=O)N[C@@H](C)C(=O)N1CCC[C@H]1C(=O)N1CCC[C@H]1C(=O)N1CCC[C@H]1C(=O)N[C@@H](CO)C(N)=O)[C@@H](C)CC)C(=O)O) [exendin-4 peptide analogue SEQ ID NO: 42] | 0.0129 | 8.47 | 0.0062 |
| Y[Aib]QGTFTSDLSIQK([γGlu-Palmitoyl])EKRAVQLFIEWLKNGGPSSGAPPPS-NH2 (N-terminus assumed; SMILES CCCCCCCCCCCCCCCC(=O)N[C@@H](CCC(=O)NCCCC[C@H](NC(=O)[C@H](CCC(N)=O)NC(=O)[C@@H](NC(=O)[C@H](CO)NC(=O)[C@H](CC(C)C)NC(=O)[C@H](CC(=O)O)NC(=O)[C@H](CO)NC(=O)[C@@H](NC(=O)[C@H](Cc1ccccc1)NC(=O)[C@@H](NC(=O)CNC(=O)[C@H](CCC(N)=O)NC(=O)C(C)(C)NC(=O)[C@@H](N)Cc1ccc(O)cc1)[C@@H](C)O)[C@@H](C)O)[C@@H](C)CC)C(=O)N[C@@H](CCC(=O)O)C(=O)N[C@@H](CCCCN)C(=O)N[C@@H](CCCNC(=N)N)C(=O)N[C@@H](C)C(=O)N[C@H](C(=O)N[C@@H](CCC(N)=O)C(=O)N[C@@H](CC(C)C)C(=O)N[C@@H](Cc1ccccc1)C(=O)N[C@H](C(=O)N[C@@H](CCC(=O)O)C(=O)N[C@@H](Cc1c[nH]c2ccccc12)C(=O)N[C@@H](CC(C)C)C(=O)N[C@@H](CCCCN)C(=O)N[C@@H](CC(N)=O)C(=O)NCC(=O)NCC(=O)N1CCC[C@H]1C(=O)N[C@@H](CO)C(=O)N[C@@H](CO)C(=O)NCC(=O)N[C@@H](C)C(=O)N1CCC[C@H]1C(=O)N1CCC[C@H]1C(=O)N1CCC[C@H]1C(=O)N[C@@H](CO)C(N)=O)[C@@H](C)CC)C(C)C)C(=O)O) [exendin-4 peptide analogue SEQ ID NO: 46] | 0.0202 | 0.53 | 0.0235 |
| Y[Aib]QGTFTSDLSIQK([γGlu-Palmitoyl])DKRAAQDFIEWLKKGGPSSGAPPPS-NH2 (N-terminus assumed; SMILES CCCCCCCCCCCCCCCC(=O)N[C@@H](CCC(=O)NCCCC[C@H](NC(=O)[C@H](CCC(N)=O)NC(=O)[C@@H](NC(=O)[C@H](CO)NC(=O)[C@H](CC(C)C)NC(=O)[C@H](CC(=O)O)NC(=O)[C@H](CO)NC(=O)[C@@H](NC(=O)[C@H](Cc1ccccc1)NC(=O)[C@@H](NC(=O)CNC(=O)[C@H](CCC(N)=O)NC(=O)C(C)(C)NC(=O)[C@@H](N)Cc1ccc(O)cc1)[C@@H](C)O)[C@@H](C)O)[C@@H](C)CC)C(=O)N[C@@H](CC(=O)O)C(=O)N[C@@H](CCCCN)C(=O)N[C@@H](CCCNC(=N)N)C(=O)N[C@@H](C)C(=O)N[C@@H](C)C(=O)N[C@@H](CCC(N)=O)C(=O)N[C@@H](CC(=O)O)C(=O)N[C@@H](Cc1ccccc1)C(=O)N[C@H](C(=O)N[C@@H](CCC(=O)O)C(=O)N[C@@H](Cc1c[nH]c2ccccc12)C(=O)N[C@@H](CC(C)C)C(=O)N[C@@H](CCCCN)C(=O)N[C@@H](CCCCN)C(=O)NCC(=O)NCC(=O)N1CCC[C@H]1C(=O)N[C@@H](CO)C(=O)N[C@@H](CO)C(=O)NCC(=O)N[C@@H](C)C(=O)N1CCC[C@H]1C(=O)N1CCC[C@H]1C(=O)N1CCC[C@H]1C(=O)N[C@@H](CO)C(N)=O)[C@@H](C)CC)C(=O)O) [exendin-4 peptide analogue SEQ ID NO: 44] | 0.0255 | 0.0552 | 0.0097 |
| Y[Aib]QGTFTSDLSIQK([γGlu-Palmitoyl])EK[Aib]AA[Aib]EFIEWLKNTGPSSGAPPPS-NH2 (N-terminus assumed; SMILES CCCCCCCCCCCCCCCC(=O)N[C@@H](CCC(=O)NCCCC[C@H](NC(=O)[C@H](CCC(N)=O)NC(=O)[C@@H](NC(=O)[C@H](CO)NC(=O)[C@H](CC(C)C)NC(=O)[C@H](CC(=O)O)NC(=O)[C@H](CO)NC(=O)[C@@H](NC(=O)[C@H](Cc1ccccc1)NC(=O)[C@@H](NC(=O)CNC(=O)[C@H](CCC(N)=O)NC(=O)C(C)(C)NC(=O)[C@@H](N)Cc1ccc(O)cc1)[C@@H](C)O)[C@@H](C)O)[C@@H](C)CC)C(=O)N[C@@H](CCC(=O)O)C(=O)N[C@@H](CCCCN)C(=O)NC(C)(C)C(=O)N[C@@H](C)C(=O)N[C@@H](C)C(=O)NC(C)(C)C(=O)N[C@@H](CCC(=O)O)C(=O)N[C@@H](Cc1ccccc1)C(=O)N[C@H](C(=O)N[C@@H](CCC(=O)O)C(=O)N[C@@H](Cc1c[nH]c2ccccc12)C(=O)N[C@@H](CC(C)C)C(=O)N[C@@H](CCCCN)C(=O)N[C@@H](CC(N)=O)C(=O)N[C@H](C(=O)NCC(=O)N1CCC[C@H]1C(=O)N[C@@H](CO)C(=O)N[C@@H](CO)C(=O)NCC(=O)N[C@@H](C)C(=O)N1CCC[C@H]1C(=O)N1CCC[C@H]1C(=O)N1CCC[C@H]1C(=O)N[C@@H](CO)C(N)=O)[C@@H](C)O)[C@@H](C)CC)C(=O)O) [exendin-4 peptide analogue SEQ ID NO: 9] | 0.009 | 0.445 | 0.0055 |
| Y[Aib]QGTFTSDLSIQK([γGlu-Palmitoyl])DSRAAQDFIEWLKKGGPSSGAPPPS-NH2 (N-terminus assumed; SMILES CCCCCCCCCCCCCCCC(=O)N[C@@H](CCC(=O)NCCCC[C@H](NC(=O)[C@H](CCC(N)=O)NC(=O)[C@@H](NC(=O)[C@H](CO)NC(=O)[C@H](CC(C)C)NC(=O)[C@H](CC(=O)O)NC(=O)[C@H](CO)NC(=O)[C@@H](NC(=O)[C@H](Cc1ccccc1)NC(=O)[C@@H](NC(=O)CNC(=O)[C@H](CCC(N)=O)NC(=O)C(C)(C)NC(=O)[C@@H](N)Cc1ccc(O)cc1)[C@@H](C)O)[C@@H](C)O)[C@@H](C)CC)C(=O)N[C@@H](CC(=O)O)C(=O)N[C@@H](CO)C(=O)N[C@@H](CCCNC(=N)N)C(=O)N[C@@H](C)C(=O)N[C@@H](C)C(=O)N[C@@H](CCC(N)=O)C(=O)N[C@@H](CC(=O)O)C(=O)N[C@@H](Cc1ccccc1)C(=O)N[C@H](C(=O)N[C@@H](CCC(=O)O)C(=O)N[C@@H](Cc1c[nH]c2ccccc12)C(=O)N[C@@H](CC(C)C)C(=O)N[C@@H](CCCCN)C(=O)N[C@@H](CCCCN)C(=O)NCC(=O)NCC(=O)N1CCC[C@H]1C(=O)N[C@@H](CO)C(=O)N[C@@H](CO)C(=O)NCC(=O)N[C@@H](C)C(=O)N1CCC[C@H]1C(=O)N1CCC[C@H]1C(=O)N1CCC[C@H]1C(=O)N[C@@H](CO)C(N)=O)[C@@H](C)CC)C(=O)O) [exendin-4 peptide analogue SEQ ID NO: 43] | 0.0482 | 0.114 | 0.007 |
| Y[Aib]QGTFTSDLSIQK([γGlu-Palmitoyl])EKRAAQLFIEWLKNGGPSSGAPPPS-NH2 (N-terminus assumed; SMILES CCCCCCCCCCCCCCCC(=O)N[C@@H](CCC(=O)NCCCC[C@H](NC(=O)[C@H](CCC(N)=O)NC(=O)[C@@H](NC(=O)[C@H](CO)NC(=O)[C@H](CC(C)C)NC(=O)[C@H](CC(=O)O)NC(=O)[C@H](CO)NC(=O)[C@@H](NC(=O)[C@H](Cc1ccccc1)NC(=O)[C@@H](NC(=O)CNC(=O)[C@H](CCC(N)=O)NC(=O)C(C)(C)NC(=O)[C@@H](N)Cc1ccc(O)cc1)[C@@H](C)O)[C@@H](C)O)[C@@H](C)CC)C(=O)N[C@@H](CCC(=O)O)C(=O)N[C@@H](CCCCN)C(=O)N[C@@H](CCCNC(=N)N)C(=O)N[C@@H](C)C(=O)N[C@@H](C)C(=O)N[C@@H](CCC(N)=O)C(=O)N[C@@H](CC(C)C)C(=O)N[C@@H](Cc1ccccc1)C(=O)N[C@H](C(=O)N[C@@H](CCC(=O)O)C(=O)N[C@@H](Cc1c[nH]c2ccccc12)C(=O)N[C@@H](CC(C)C)C(=O)N[C@@H](CCCCN)C(=O)N[C@@H](CC(N)=O)C(=O)NCC(=O)NCC(=O)N1CCC[C@H]1C(=O)N[C@@H](CO)C(=O)N[C@@H](CO)C(=O)NCC(=O)N[C@@H](C)C(=O)N1CCC[C@H]1C(=O)N1CCC[C@H]1C(=O)N1CCC[C@H]1C(=O)N[C@@H](CO)C(N)=O)[C@@H](C)CC)C(=O)O) [exendin-4 peptide analogue SEQ ID NO: 45] | 0.0234 | 0.0797 | 0.0114 |
